What is called Kd is the equilibrium constant for the complex coming apart.

Experiment [1] concerns the target T1, receptor-binding domain (RBD) of the wild-type SARS-CoV-2 spike protein (SARS-CoV-2, UniProt P0DTC2 333-527).
T1 construct: also called SARS-CoV-2 RBD
Description: BLI. The following applies: both partners purified.

The target of experiment [2] is T1, receptor-binding domain (RBD) of the …. Description: cell-based or functional assay.

B1: hRBD15 (antibody, V domains shown)
VH: QVQLVQSGAEVKKPGASVKVSCKASGYTFTSQYMHWVRQAPGQGLEWMGIINPSGGSTSYAQKFQGRVTMTSDTSTSTVYMELSSLRSEDTAVYYCARDIYFVPARGGFDPWGQGTLVTVSS
VL: EIVLTQSPGTLSLSPGERATLSCRASQSIISSYLAWYQQKPGQAPRLLIYGASSRATGIPDRFSGSGSGTDFTLTISRLEPEDFAVYYCQQSGSAPRYTFGQGTKLEIK
For B1, the affinity in experiment [1], expressed as Kd, was 0.0382 nM. In experiment [2], this molecule displayed an other of 64400 ng/mL.

B2: hRBD2 (antibody, V domains shown)
VH: QVQLVQSGSELKKPGASVKVSCKASGYTFSNYAINWVRQAPGQGLEWMGWINTNTGHPTYAQGFTGRFVFSLDASVTTAYLQISSLKAEDTAVYYCARVGRTAIAALDDAFDIWGQGTMVTVSS
VL: not shown
In experiment [1], B2 had a dissociation constant (Kd) of 0.0652 nM. Also, the other in experiment [2] is 91.7 ng/mL.

B3: hRBD3 (antibody, V domains shown)
VH: QLQLQESGPRLVRPSETLSLTCTVSGGSINSGTHYCGWIRQSPGKGLEWIGSIYYSGTTYYNPSLKSRVTISVDTSKNQFSLKLSSVTAADTAVYFCARRRAGSYFKDLSDYWGQGTLVTVSS
VL: NFMLTQPHSVSESPGKTVTISCTRSSGSIASNYVQWYQQRPGGAPTTVIYEDNQRPSGVPDRFSGSIDTSSNSASLTISGLKTDDEADYYCQSYDSTNHEVFGGGTKLTVL
In experiment [1], B3 displayed a Kd below 0.001 nM. In experiment [2], this molecule yielded an other of 11.6 ng/mL.

B4: hRBD4 (antibody, V domains shown)
VH: QLQLQESGPGLVKPSETLSLTCTVSGGSISTSSHYCAWIRQPPGKGLEWIGSIYYRGSTYYNPSLKSRVTISVDTSKNHFSLKLSSVTAADTAVYYCARRRAGSYYKDLFDYWGQGTLVTVSS
VL: NFMLTQPHSVSESPGKTVTISCTRSSGSIASNYVQWYQQRPGSAPTTVIYEDNQRPSGVPDRFSGSIDSSSNSASLTISGLKTEDEADYYCQSYDNSNHEVFGGGTKLTVL
Molecule B4 came in with a Kd in experiment [1] of 0.491 nM. In addition, in experiment [2], the other was 8.9 ng/mL.

B5: hRBD8 (antibody, V domains shown)
VH: QVQLQQWGAGRLKPSETLSLTCAVYGGSFSGYYWSWIRQPPGKGLEWIGEIDHSGSTNYNSSLKSRVTISVDTSKKWFSLKLSSVTAADTAVYYCARAHLIGDCGGGRCYSGPDPSNWFDPWGQGTLVTVSS
VL: SSELTQDPAVSVALGQTVRITCQGDSLRSYYASWYQQKPGQAPILVIYGKDNRPSGIPDRFSGSSSENTASLTITGAQAEDEADYYCNCRDTSGNHPVFGGGTKLTVL
In experiment [1], B5 had a Kd of 9.74 nM. For the same molecule, in experiment [2], the other was found to be 49.6 ng/mL.

B6: hRBD13 (antibody, V domains shown)
VH: QVQLVESGGGVVQPGRSLRLSCAVSGFTFRNYGMDWVRQAPGKGLEWVAVISYDGSNKYYADSVKGRFTISRDNSKNTLFLHLNSLRAEDTAVYYCAKAGGGPYCGGGNCYMHYFDYWGQGTQVTVSS
VL: DIQMTQSPSSLSASVGDRVTITCQASQDINNYLNWYQQKPGKAPKLLIYDASNLETGVPLRFSGSGSATHFSFTISSLQPEDIATYYCQQYDHLPCTFGQGTKLEIR
With B6, the Kd in experiment [1] is below 0.001 nM. In experiment [2], this molecule displayed an other of 48600 ng/mL.

B7: hRBD12 (antibody, V domains shown)
VH: EVQLVESGGGLVQPGGSLRLSCAASGLTVSSNYMSWVRQAPGKGLEWVSVIYSGGSTYYADSVKGRFTISRDNSKNTLYLLMNSLRAEDTAVYYCARDLQQLGGMDVWGQGTTVTVSS
VL: not shown
For the molecule B7, in experiment [1], the Kd turned out to be 0.219 nM. The molecule also had an other in experiment [2] of 20.8 ng/mL.

B8: hRBD5 (antibody, V domains shown)
VH: QVQLQQWGAGLLQPSETLSLTCAVYGGSFSDYYWSWIRQPPGRGLEWIGEIDHSGSTNYNPSLKSRVTILVDTSKNQFSLKLSSVTAADTAVYYCARAHLIGHCGDGGCYSGPDPSSWFDPWGQGTLVIVSS
VL: SSELTQDPAVSVALGQTVRITCQGDSLRRYFASWYQQKPGQAPVLVIYGKNIRPSGIPDRFSGSSSGNTGSLTITGAQAEDEADYYCHSRDSSGHHPLFGGGTKLTVL
In turn, B8 returned a dissociation constant (Kd) in experiment [1] of 0.127 nM. In experiment [2], this molecule displayed an other of 10.7 ng/mL.

B9: hRBD6 (antibody, V domains shown)
VH: QVQLQQWGAGLLKPSETLSLSCAVYGGAFSDYYWSWIRQPPGKGLEWIGEIDLSGSTNYNPSLKSRVTISVDTSKNQFSLKLISVTAADTAVYYCARTHLIGYCSGGSCYSGPDPSNWFDPWGQGTLVTVSS
VL: SSELTQDPAVSVALGQTVRITCQGDSLRSYYASWYQQKPGQAPVLVIYGKNNRPSGIPDRFSGSSSGNTASLTITGAQAEDEADYYCNSRDTSGHHPVFGGGTKLTVL
In turn, B9 gave a Kd in experiment [1] of 5.09 nM. The molecule also gave an other in experiment [2] of 32.7 ng/mL.

B10: hRBD9 (antibody, V domains shown)
VH: EVQLVESGGGLIQPGGSLRLSCAASGLTVSSNYMNWVRQAPGKGLEWVSVLYSGGSTYYADSVKGRFTISRDNSKNTLYLQMNSLRAEDTAVYYCARDLVAYGMDVWGQGTTVTVSS
VL: DIQLTQSPSFLSASVGDRVTITCRASQGISSDLAWYQQKPGKAPKLLIYAASTLQSGVPSRFSGSGSGTEFTLTISSLQPEDFATYYCQQLNSYPTFGQGTRLEIK
In experiment [1], B10 displayed a Kd of 0.126 nM. In addition, the other in experiment [2] worked out at 20.2 ng/mL.

These data come from PMC12167710 (Nature Biotechnology, 2024).
